Reference: publication doi:10.1101/854158 (bioRxiv, 2019)

B2: FANCA (natural protein)
chain: MSDSWVPNSASGQDPGGRRRAWAELLAGRVKREKYNPERAQKLKESAVRLLRSHQDLNALLLEVEGPLCKKLSLSKVIDCDSSEAYANHSSSFIGSALQDQASRLGVPVGILSAGMVASSVGQICTAPAETSHPVLLTVEQRKKLSSLLEFAQYLLAHSMFSRLSFCQELWKIQSSLLLEAVWHLHVQGIVSLQELLESHPDMHAVGSWLFRNLCCLCEQMEASCQHADVARAMLSDFVQMFVLRGFQKNSDLRRTVEPEKMPQVTVDVLQRMLIFALDALAAGVQEESSTHKIVRCWFGVFSGHTLGSVISTDPLKRFFSHTLTQILTHSPVLKASDAVQMQREWSFARTHPLLTSLYRRLFVMLSAEELVGHLQEVLETQEVHWQRVLSFVSALVVCFPEAQQLLEDWVARLMAQAFESCQLDSMVTAFLVVRQAALEGPSAFLSYADWFKASFGSTRGYHGCSKKALVFLFTFLSELVPFESPRYLQVHILHPPLVPGKYRSLLTDYISLAKTRLADLKVSIENMGLYEDLSSAGDITEPHSQALQDVEKAIMVFEHTGNIPVTVMEASIFRRPYYVSHFLPALLTPRVLPKVPDSRVAFIESLKRADKIPPSLYSTYCQACSAAEEKPEDAALGVRAEPNSAEEPLGQLTAALGELRASMTDPSQRDVISAQVAVISERLRAVLGHNEDDSSVEISKIQLSINTPRLEPREHMAVDLLLTSFCQNLMAASSVAPPERQGPWAALFVRTMCGRVLPAVLTRLCQLLRHQGPSLSAPHVLGLAALAVHLGESRSALPEVDVGPPAPGAGLPVPALFDSLLTCRTRDSLFFCLKFCTAAISYSLCKFSSQSRDTLCSCLSPGLIKKFQFLMFRLFSEARQPLSEEDVASLSWRPLHLPSADWQRAALSLWTHRTFREVLKEEDVHLTYQDWLHLELEIQPEADALSDTERQDFHQWAIHEHFLPESSASGGCDGDLQAACTILVNALMDFHQSSRSYDHSENSDLVFGGRTGNEDIISRLQEMVADLELQQDLIVPLGHTPSQEHFLFEIFRRRLQALTSGWSVAASLQRQRELLMYKRILLRLPSSVLCGSSFQAEQPITARCEQFFHLVNSEMRNFCSHGGALTQDITAHFFRGLLNACLRSRDPSLMVDFILAKCQTKCPLILTSALVWWPSLEPVLLCRWRRHCQSPLPRELQKLQEGRQFASDFLSPEAASPAPNPDWLSAAALHFAIQQVREENIRKQLKKLDCEREELLVFLFFFSLMGLLSSHLTSNSTTDLPKAFHVCAAILECLEKRKISWLALFQLTESDLRLGRLLLRVAPDQHTRLLPFAFYSLLSYFHEDAAIREEAFLHVAVDMYLKLVQLFVAGDTSTVSPPAGRSLELKGQGNPVELITKARLFLLQLIPRCPKKSFSHVAELLADRGDCDPEVSAALQSRQQAAPDADLSQEPHLF

Key:
Experiment in all cases: cryo-EM structure
FANCC = target: T1, FANCC (human, UniProt Q00597 1-558)
T1 sequence: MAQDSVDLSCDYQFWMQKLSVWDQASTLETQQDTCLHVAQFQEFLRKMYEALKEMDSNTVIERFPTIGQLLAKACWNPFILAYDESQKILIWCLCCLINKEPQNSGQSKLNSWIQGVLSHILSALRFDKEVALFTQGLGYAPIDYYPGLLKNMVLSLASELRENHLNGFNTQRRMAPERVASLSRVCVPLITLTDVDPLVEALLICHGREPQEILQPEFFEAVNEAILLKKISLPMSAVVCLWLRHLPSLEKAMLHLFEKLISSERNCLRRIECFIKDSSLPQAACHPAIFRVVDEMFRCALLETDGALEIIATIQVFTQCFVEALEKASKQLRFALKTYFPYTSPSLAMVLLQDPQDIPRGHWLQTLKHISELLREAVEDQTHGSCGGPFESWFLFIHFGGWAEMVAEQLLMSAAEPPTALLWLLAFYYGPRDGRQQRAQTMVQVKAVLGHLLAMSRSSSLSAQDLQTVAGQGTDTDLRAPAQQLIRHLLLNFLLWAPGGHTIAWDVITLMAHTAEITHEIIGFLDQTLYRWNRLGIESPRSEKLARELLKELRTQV

cryo-EM structure = target: the molecule itself
FANCA = target: B2

B1: FANCE (natural protein)
chain: MATPDAGLPGAEGVEPAPWAQLEAPARLLLQALQAGPEGARRGLGVLRALGSRGWEPFDWGRLLEALCREEPVVQGPDGRLELKPLLLRLPRICQRNLMSLLMAVRPSLPESGLLSVLQIAQQDLAPDPDAWLRALGELLRRDLGVGTSMEGASPLSERCQRQLQSLCRGLGLGGRRLKSPQAPDPEEEENRDSQQPGKRRKDSEEEAASPEGKRVPKRLRCWEEEEDHEKERPEHKSLESLADGGSASPIKDQPVMAVKTGEDGSNLDDAKGLAESLELPKAIQDQLPRLQQLLKTLEEGLEGLEDAPPVELQLLHECSPSQMDLLCAQLQLPQLSDLGLLRLCTWLLALSPDLSLSNATVLTRSLFLGRILSLTSSASRLLTTALTSFCAKYTYPVCSALLDPVLQAPGTGPAQTELLCCLVKMESLEPDAQVLMLGQILELPWKEETFLVLQSLLERQVEMTPEKFSVLMEKLCKKGLAATTSMAYAKLMLTVMTKYQANITETQRLGLAMALEPNTTFLRKSLKAALKHLGP
Q: Does B1 bind (FANCC)?
A: binds

Q: B2 was tested. Which “stoichiometry N” value (cryo-EM structure) did it give?
A: 2

B3: FANCB (natural protein)
chain: MTSKQAMSSNEQERLLCYNGEVLVFQLSKGNFADKEPTKTPILHVRRMVFDRGTKVFVQKSTGFFTIKEENSHLKIMCCNCVSDFRTGINLPYIVIEKNKKNNVFEYFLLILHSTNKFEMRLSFKLGYEMKDGLRVLNGPLILWRHVKAFFFISSQTGKVVSVSGNFSSIQWAGEIENLGMVLLGLKECCLSEEECTQEPSKSDYAIWNTKFCVYSLESQEVLSDIYIIPPAYSSVVTYVHICATEIIKNQLRISLIALTRKNQLISFQNGTPKNVCQLPFGDPCAVQLMDSGGGNLFFVVSFISNNACAVWKESFQVAAKWEKLSLVLIDDFIGSGTEQVLLLFKDSLNSDCLTSFKITDLGKINYSSEPSDCNEDDLFEDKQENRYLVVPPLETGLKVCFSSFRELRQHLLLKEKIISKSYKALINLVQGKDDNTSSAEEKECLVPLCGEEENSVHILDEKLSDNFQDSEQLVEKIWYRVIDDSLVVGVKTTSSLKLSLNDVTLSLLMDQAHDSRFRLLKCQNRVIKLSTNPFPAPYLMPCEIGLEAKRVTLTPDSKKEESFVCEHPSKKECVQIITAVTSLSPLLTFSKFCCTVLLQIMERESGNCPKDRYVVCGRVFLSLEDLSTGKYLLTFPKKKPIEHMEDLFALLAAFHKSCFQITSPGYALNSMKVWLLEHMKCEIIKEFPEVYFCERPGSFYGTLFTWKQRTPFEGILIIYSRNQTVMFQCLHNLIRILPINCFLKNLKSGSENFLIDNMAFTLEKELVTLSSLSSAIAKHESNFMQRCEVSKGKSSVVAAALSDRRENIHPYRKELQREKKKMLQTNLKVSGALYREITLKVAEVQLKSDFAAQKLSNL
Q: Does B3 bind (cryo-EM structure)?
A: binds

Q: Does B3 bind (FANCA)?
A: binds

B4: FAAP100 (natural protein)
chain: MAGAAPRVRYLAGFCCPLGGLAAGKPRVLCHEAEVFLSTGSELVYVYDQEGGLLTAAFRFPDQVWHLELLAPRRLLYALCARRGLYCLSLDHPGRSRSTSQDDRDSEDGDQPSPVIPVDPDACILPDAALCAFTLLDSVLVTLVQGPARWKMQLFEQPCPGEDPRPGGQIGEVELSSYTPPAGVPGKPAAPHFLPVLCSVSPSGSRVPHDLLGGSGGFTLEDALFGLLFGADATLLQSPVVLCGLPDGQLCCVILKALVTSRSAPGDPNALVKILHHLEEPVIFIGALKTEPQAAEAAENFLPDEDVHCDCLVAFGHHGRMLAIKASWDESGKLVPELREYCLPGPVLCAACGGGGRVYHSTPSDLCVVDLSRGSTPLGPEQPEEGPGGLPPMLCPASLNICSVVSLSASPRTHEGGTKLLALSAKGRLMTCSLDLDSEMPGPARMTTESAGQKIKELLSGIGNISERVSFLKKAVDQRNKALTSLNEAMNVSCALLSSGTGPRPISCTTSTTWSRLQTQDVLMATCVLENSSSFSLDQGWTLCIQVLTSSCALDLDSACSAITYTIPVDQLGPGARREVTLPLGPGENGGLDLPVTVSCTLFYSLREVVGGALAPSDSEDPFLDECPSDVLPEQEGVCLPLSRHTVDMLQCLRFPGLAPPHTRAPSPLGPTRDPVATFLETCREPGSQPAGPASLRAEYLPPSVASIKVSAELLRAALKDGHSGVPLCCATLQWLLAENAAVDVVRARALSSIQGVAPDGANVHLIVREVAMTDLCPAGPIQAVEIQVESSSLADICRAHHAVVGRMQTMVTEQATQGSSAPDLRVQYLRQIHANHETLLREVQTLRDRLCTEDEASSCATAQRLLQVYRQLRHPSLILL
Q: Does B4 bind (FANCA)?
A: binds
